PMC12719470 (Frontiers in Immunology, 2025)

Key:
Conditions in all cases: both partners purified
[1] = target: T1, Nanobody-161 IgG1; assay: BLI; Gator system, 25 °C; 30 nM Nanobody-161 IgG1 or mutant immobilised on Protein A biosensors for 120 s; 4800 nM-300 nM TNFR2-His in Q Buffer (PBS, 0.02% Tween 20, 0.2% BSA); association 120 s, dissociation 180 s; global 1:1 Langmuir fit
T1 construct: CDR1 26-35, CDR2 50-59, CDR3 99-110); 78 kDa, called bivalent in the discussion; The methods nonetheless speak of heavy-chain and light-chain plasmids; source: ExpiCHO, transfected, purified from conditioned medium (MabSelect SuRe LX)

[2] = target: T2, Nanobody-161 IgG1 R29A; assay: as above
T2 construct: as the chain of m1 with the stated change

[3] = target: T3, Nanobody-161 IgG1 R53A; assay: as above
T3 construct: as the chain of m1 with the stated change

[4] = target: T4, Nanobody-161 IgG1 Q102A; assay: as above
T4 construct: as the chain of m1 with the stated change

[5] = target: T5, Nanobody-161 IgG1 F107G; assay: as above
T5 construct: as the chain of m1 with the stated change

[6] = target: T6, Nanobody-161 IgG1 R108A; assay: as above
T6 construct: as the chain of m1 with the stated change

[7] = target: T7, TNFR2-His protein (Homo sapiens, UniProt P20333); assay: BLI; 30 nM Nanobody-161 IgG1 or mutant immobilised on Protein A biosensors (Gator); 4800 nM-300 nM TNFR2-His in Q Buffer (PBS, 0.02% Tween 20, 0.2% BSA); 25 °C; association 120 s, dissociation 180 s; global 1:1 Langmuir fit
T7 construct: Tumor necrosis factor receptor 2 (TNFR2), human; The BLI methods say only 'TNFR2-His protein'; It may be the E. coli ectodomain (residues 33-205, purified on a nickel column) or a bought protein (Sino Biological 10417-H03H); neither the source nor the species is named for this experiment; also called histidine-tagged TNFR2
T7 sequence (P20333 23-461): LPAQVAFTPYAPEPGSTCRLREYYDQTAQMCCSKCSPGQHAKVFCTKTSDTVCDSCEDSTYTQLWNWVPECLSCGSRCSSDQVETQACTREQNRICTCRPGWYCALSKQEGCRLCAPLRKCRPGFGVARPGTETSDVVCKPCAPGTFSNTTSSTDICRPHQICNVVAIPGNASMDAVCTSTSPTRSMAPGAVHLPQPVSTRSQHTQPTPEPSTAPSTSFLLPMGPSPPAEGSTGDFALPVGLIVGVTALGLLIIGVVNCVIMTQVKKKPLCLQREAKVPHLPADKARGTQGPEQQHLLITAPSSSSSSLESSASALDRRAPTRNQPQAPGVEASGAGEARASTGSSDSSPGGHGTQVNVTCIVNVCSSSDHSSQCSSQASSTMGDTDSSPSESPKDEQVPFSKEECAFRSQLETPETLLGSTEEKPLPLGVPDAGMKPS

Binder	binding result [1]	binding result [2]	binding result [3]	binding result [4]	binding result [5]	binding result [6]	Kd [7] [nM]	koff [7] [s⁻¹]	kon [7] [M⁻¹ s⁻¹]
TNFR2-His protein (receptor, UniProt P20333 23-461, looked up, TNFR2-His protein used as analyte in BLI; also called histidine-tagged TNFR2) APEPGSTCRLREYYDQTAQMCCSKCSPGQHAKVFCTKTSDTVCDSCEDSTYTQLWNWVPECLSCGSRCSSDQVETQACTREQNRICTCRPGWYCALSKQEGCRLCAPLRKCRPGFGVARPGTETSDVVCKPCAPGTFSNTTSSTDICRPHQICNVVAIPGNASMDAVCTSTSP	binds	binds	binds	binds	binds	binds			
Nanobody-161 IgG1 Q102A (VHH, as the VHH of Wm1, with the stated change) VHH: EVQLVESGGGLVQPGGSLRLSCAASGSIRFINDMGWYRQAPGKGLELVAAIGRGGGSTNYADSVKGRFTISRDNAKNTLYLQMNSLRAEDTAVYYCHAEISALGYAFRDYWGQGTLVTVSS							212	0.000699	3290
Nanobody-161 IgG1 S101A (VHH, as the VHH of Wm1, with the stated change) VHH: EVQLVESGGGLVQPGGSLRLSCAASGSIRFINDMGWYRQAPGKGLELVAAIGRGGGSTNYADSVKGRFTISRDNAKNTLYLQMNSLRAEDTAVYYCHAEIAQLGYAFRDYWGQGTLVTVSS							1720	0.00926	5370
Nanobody-161 IgG1 R29A (VHH, as the VHH of Wm1, with the stated change) VHH: EVQLVESGGGLVQPGGSLRLSCAASGSIAFINDMGWYRQAPGKGLELVAAIGRGGGSTNYADSVKGRFTISRDNAKNTLYLQMNSLRAEDTAVYYCHAEISQLGYAFRDYWGQGTLVTVSS							631	0.002	3170
Nanobody-161 IgG1 L103G (VHH, as the VHH of Wm1, with the stated change) VHH: EVQLVESGGGLVQPGGSLRLSCAASGSIRFINDMGWYRQAPGKGLELVAAIGRGGGSTNYADSVKGRFTISRDNAKNTLYLQMNSLRAEDTAVYYCHAEISQGGYAFRDYWGQGTLVTVSS							976	0.00382	3920
Nanobody-161 IgG1 F30G (VHH, as the VHH of Wm1, with the stated change) VHH: EVQLVESGGGLVQPGGSLRLSCAASGSIRGINDMGWYRQAPGKGLELVAAIGRGGGSTNYADSVKGRFTISRDNAKNTLYLQMNSLRAEDTAVYYCHAEISQLGYAFRDYWGQGTLVTVSS							3780	0.0126	3340

Next, values leading:

binding result [1]	binding result [2]	binding result [3]	binding result [4]	binding result [5]	binding result [6]	Kd [7] [nM]	koff [7] [s⁻¹]	kon [7] [M⁻¹ s⁻¹]	Binder
						81.5	0.000276	3390	Nanobody-161 IgG1 (VHH, also called WT; source: ExpiCHO, purified (MabSelect SuRe LX)) VHH: EVQLVESGGGLVQPGGSLRLSCAASGSIRFINDMGWYRQAPGKGLELVAAIGRGGGSTNYADSVKGRFTISRDNAKNTLYLQMNSLRAEDTAVYYCHAEISQLGYAFRDYWGQGTLVTVSS
						79.5	0.000321	4030	Nanobody-161 IgG1 R53A (VHH, as the VHH of Wm1, with the stated change) VHH: EVQLVESGGGLVQPGGSLRLSCAASGSIRFINDMGWYRQAPGKGLELVAAIGAGGGSTNYADSVKGRFTISRDNAKNTLYLQMNSLRAEDTAVYYCHAEISQLGYAFRDYWGQGTLVTVSS
						186	0.000877	4730	Nanobody-161 IgG1 R108A (VHH, as the VHH of Wm1, with the stated change) VHH: EVQLVESGGGLVQPGGSLRLSCAASGSIRFINDMGWYRQAPGKGLELVAAIGRGGGSTNYADSVKGRFTISRDNAKNTLYLQMNSLRAEDTAVYYCHAEISQLGYAFADYWGQGTLVTVSS
